Test results published in the DeepSol protein solubility set.

Test: soluble on expression in E. coli; label from the status in PepcDB or PDB records

Row | Sequence | soluble on expression in E. coli
1 | VALESATVGSMHERTVRARTATGIVEGFTRDGVHRWRSIPYARAPVGSLRFRAPQPAQPWPGVRHCHTFANCAPQQRRYTVMGIGRYQTRSEDCLTLNVVTPEEPATQPLPVMVFIHGGGYILGSSATPIYDGAALARRGCVYVSVNYRLGALGCLDLSSLSTPQITLDSNVYLRDLVLALRWVHDNIAEFGGDPGNVTIFGESAGAHITATLLAVPAAKGLFARAISESPAAGMVRSREVAAEFAARFANLIGARTQDAANALMQASPAQLVEAQHHLIRQGMRKRLGAFPIGPVFGDDYLPMDPVEAMRSGRVHAVPLIVGTNAEEGRLFTRFLGMLPTNEPMVEELLSGMKPADRERITAAYPNYPAPSACIQLGGDFAFSSAAWQIAEAHGANAPTYLYRYDYAPRTLRWSGFGATHATELFAVFDIYRTRFGALLTAAADRRAALRVSNEVQRRWRCFSQIGVPGDDWPAYTQDDRAVLVFDRRCRIEFDPHQHRRIAWDGFSLAN | not soluble
2 | MKKIAVFADVQNLYYTVRQAYGCHFNYAALWADISKRGEIVHAFAYAIDRGDSKQQQFQQILRNLGFTVRLKPYIQRSDGSAKGEWDVGITIDIMDFAPQVDEVVLASGDGDFDMLLDRVISKHGVEAVAYGVPGLTANSLIRAASRYVPIEGALLLK | not soluble
3 | MNVFQMRDKLKARLKHLDVEFKFDREEETLRIVRIDNHKGVTIKLNAIVAKYEEQKEKIIDEICYYVEEAIAQMGDEVINNVEDIQIMPVIRATSFDKETKEGHAFVLTEHTAETNIYYALDLGKSYRLIDENMLQTLNLTAQQVKEMSLFNVRKLECRYSTDEVKGNIFYFINTNDGYDASRILNTSFLNHIQHQCEGEMLVGVPHQDVLILADIRNKTGYDVMAHLTMEFFTKGLVPITSLSFGYDNGHLEPIFILGKNNKQK | not soluble
4 | QSTSNKTLDTLIVTGTRISDRTAAESSSPIDIISQESLEATGTTELATALSRMVPSLNFPRPAVSDGNDAVRPAQLRGLSPDQVLVLVNGKRYHTTALVNLNEIQGRGSAPADLNTIPIAAIERIEVLRDGASAQYGSDAIAGVINIVLKGAGKGGSITGHYGEYKVKDGKQYELSGDTGLSFAGTGKVHFAAQGGHEDQTNRAVPYNDGIIRQRYGDPKINQGAFSYNGSYSPTEGVTFYSFGMVSRRKVLSNGFYRWADDARNRPEIYPEGFLPQIYNVANDTSWVSGMKASTAWGLNIDLSYNYGNNQLTFDVRNSLNNSLGLSSPTAFYAGGLEITQHVLNADFNKSVDWGHLAYPLNLAFGVEWRGEIFNEYQGEEASYINGGVRSSAGTLLPGAQVFSGFKPSDSGGFDRNSHSMYIDLEGNLTEKFSAGVAGRYEHYSDFSNTR | not soluble
5 | GPLGSAGKSSLFKIILLGDGGVGKSSLMNRYVTNKFDSQLFHTIGVEFLNKDLEVDGHFVTMQIWDTAGQERFRSLRTPFYRGSDCCLLTFSVDDSQSFQNLSNWKKEFIYYADVKEPESFPFVILGNKTDIKERQVSTEEAQAWCKDNGDYPYFETSAKDSTNVAAAFEEAVRRILAT | soluble
6 | MNMIDQLNITDFQVFTDENSDKFVSKIYKFSSKMILSDFHAQPQGFLNGGASLALAEITAGMASNAIGSGQYFAFGQSINANHLNPKKCEGFVNARGLLLKNGKRNHVWEIKITDENETLISQITVVNALVPQKNSDKLEHHHHHH | soluble
7 | MSLTPMFKTPVVMTIAGSDSGGGAGIAADIKTFAAFGVHGTCAITSVTAQNTTGVLETFDLAPEAVASQIEAVCTDMDVKWAKTGMLASSEIIKEVAKQVKKHNLSLVLDPVMAAEAGGDLLKKEALSVLIKELLPLCKVTTPNASEAGALAGVTVKTHEDAKLAARKIADLGVESVIVTGGHIDATDLLYEPVSGTFTRIPGTFVKGGTHGSGCTYSASMAACLARGDSTETAARKAKTFVEQAILRSVPVGKGVGPVNPLANTLEEKERYLALQDVKEAVSILTYSPDFAKLIPEVGCNIGMAIPCARTYNEIAAVEGRIIRFREKAIPVGYVNFGASQHVARVILAALRENPEMRAAMNVKYSEEILEACREINPGISSFDRAEDPGDASTMEWGTSEAIRKYGGMPEVIYDKGAIGKEPMVRLLGKSASEVAKLAVELARRVKEGHHHHHH | soluble
8 | NFNSQNGVNKDEKDHLIERLYREISGLKAQLENMKTESQRVVLQLKGHVSELEADLAEQQHLRQQAADDCEFLRAELDELRRQREDTEKAQRSLSEIERKAQANEQRYSKLKEKYSELVQ | soluble
9 | SNAMSFIAIIPARYASTRLPGKPLADIAGKPMVVHVMERALASGADRVIVATDHPDVVKAVEAAGGEVCLTRADHQSGTERLAEVIEHYGFADDDIIVNVQGDEPLVPPVIIRQVADNLAACSAGMATLAVPIASSEEAFNPNAVKVVMDAQGYALYFSRATIPWERERFAQSKETIGDCFLRHIGIYAYRAGFIRRYVNWAPSQLEQIELLEQLRVLWYGEKIHVAVAKAVPAVGVDTQSDLDRVRAIMLNQ | soluble
10 | VAVGARCVCGRPLAVVTRPLLPGGVPFPTTCYLTGPEAVKAISHIEAEGKMKEYNDMLAENEDLRAGYERAHELYLAFRHEIALALEDSEEHIEGTSAGGMPVRVKCLHALLAQTLVMGEGANPIGDMALSAIKHEFDPAVCRCAVENEE | not soluble
11 | MTVLMRLVASAYSIAQKAGMIVRRVIAEGDLGIVEKTCATDLQTKADRLAQMSICSSLARKFPKLTIIGEEDLPSEEVDQELIEDSQWEEILKQPCPSQYSAIKEEDLVVWVDPLDGTKEYTEGLLDNVTVLIGIAYEGKAIAGVINQPYYNYEAGPDAVLGRTIWGVLGLGAFGFQLKEVPAGKHIITTTRSHSNKLVTDCVAAMNPDAVLRVGGAGNKIIQLIEGKASAYVFASPGCKKWDTCAPEVILHAVGGKLTDIHGNVLQYHKDVKHMNSAGVLATLRNYDYYASRVPESIKNALVPAHHHHHH | soluble
12 | MSLDLEDKQQKLEQAILGALDEVQVLNEDRILRRYLDLIKATLRTNFYQPDGNGQNKSYFSFKFNPKAIPELPRPVPKYEIFVYSPRVEGVHLRGGKVARGGLRWSDREEDFRTEVLGLVKAQQVKNAVIVPVGAKGGFVPRRLPLGGSRDEIQAEAIACYRIFISGLLDITDNLKEGEVVPPANVVRHDEDDPYLVVAADKGTATFSDIANGIAAEYGFWLGDAFASGGSAGYDHKGMGITAKGAWVSVQRHFRERGIDVQKDNISVIGIGDMAGDVFGNGLLMSDKLQLVAAFNHMHIFIDPNPDAASSFVERQRLFNLPRSSWADYDAKLISAGGGIFLRSAKSIAITPEMKARFDIQADRLAPTELIHALLKAPVDLLWNGGIGTYVKSSKETHADVGDKANDGLRVDGRELRAKVVGEGGNLGMTQLARVEFGLHGGANNTDFIDNAGGVDCSDHEVNIKILLNEVVQAGDMTEKQRNALLVKMTDAVGALVLGNNYKQTQALSLAQRRARERIAEYKRLMGDLEARGKLDRALEFLPSDEELAERISAGEGHHHHHH | not soluble
13 | MIHQFHSEQQFRSLGMCVVSTFGSGRACTFIGALYAIHQLNNGVEPNIFEIMKTIKQQRPGAIESFPQYSGVYAIVLDYISRKRGGKSDPVNKYINRFLADLTEILPACSTLPVMNPSTELH | not soluble
14 | MLSVFPLAGMSLASLHYSTHRVDQTQVYMVAAPMADYRVVMTEPAASGQDTYLETTAAFARRTGAVAAMNTNFFRWLNAQSLRSFQDYQKWIMGESNPEGISYRALRQTCLSGRGTIPAGVAGAYIVNGRVVRPYEGGYSGIVNFPAQGGIEFYRGRLPEQPFNVVSGSQQLLDGGRKLPVDGSDRTSPKAILGRRGNEYVFVVSDGRGNGGSPGLSFLQLQDFLLQQGVTEATAMDGGESATLVVEGQVKNHPRDRYCELARWLPAPALTLINLEEEAQETAMAMGRSLRPVGANIGLVPRHRPPAFLSFAFWEFLQQRLLARLRAWRDAVLEHHHHHH | not soluble
15 | MSDNALTSSRRFGGIARLYGDSALAHFSQAHVCVVGVGGVGSWAVEALARTGIGRLTLIDLDNVAESNVNRQLHALTGDFGKAKVTALRERITQINPQCEVFEIEDFVTEDNLPEYFGKGFDFVIDAIDQVRVKAAMAAYFVERKQPFVLSGGAGGQKNPALIQTADLSRVTHDPLLANLRYTLRKRYGFSRDTKANMRVPCVYSTENIVPPQSREACSADAAPQGLSCAGYGASMLVTASFGLYCAQAAVEHIADKKLEHHHHHH | soluble
16 | MKSKLKLHGFNNLTKTLSFNIYDICYAETPEDLQAYVQYIDEEYDAERLTQILTDVVDIIGANILNIARQDYDPQGASVTILISEQPVTPTDSQIEESPGPLPDTILAHLDKSHITVHTYPEIHPVDGIATFRVDIDVSTCGVISPLKALNYLIHQFDSDIVTVDYRVRGFTRDIEGRKHFIDHEINSIQNYLSDDTREAYQMTDVNVYQENLFHTKMLLKDFELENYLFGDATRTLSAEQREQVTERLKHEMLEIFYARNMPR | not soluble
17 | GAMEGIKVFLHERELWLKFHEVGTEMIITKAGRRMFPSYKVKVTGLNPKTKYILLMDIVPADDHRYKFADNKWSVTGKAEPAMPGRLYVHPDSPATGAHWMRQLVSFQKLKLTNNHLDPFGHIILNSMHKYQPRLHIVKADENNGFGSKNTAFCTHVFPETAFIAVTSYQNHKITQLKIENNPFAKGFRGSDDMELHRMSRMQ | soluble
18 | MGSDKIHHHHHHMAKFQSYVICTSPRSGSTLLCNMLAATGVAGKPKSYFHHGSITDWLSYLNLDINPSLPESDLLAAIFEAAVETGRNGTGLFGLRLQRHSFDLFVEKLAVLYPTLASDRQRIEAAFGSTLFIHLTRLDKVQQAVSYVKAQQTGLWHRAPDGTELERLSAPRDPIYDAAKIHASYDEFIQYDRAWQSWFDMQGIQPLRITYEALCADPIASLKDVLVQLGVNGEAASSVVPGTAKLADGINQSWETRFRTEHLHSDPL | not soluble
19 | MKPSTSKTTHSPPPEEPTAPFVNDNLPNPEDEPTIGDLNAFHSGEELHRQRSELARANYEKARPEMIANQRAVTAHLFNRYTEDEERKRVEQQKNKEAMNASTSAPTSSRNGGQSVENRKRRNDVVVAPPTSEEEWKRAQQQHWMGQQQPQMQFQMQQQYHSQQQQYIMMQQQHHHMTGMQQIHHQMPSTSSADSIRSVPTPASSMHQPSPAEMRNGCGMSRNATMDMTCSPMSGGQPIVDENNLAVPEGEWFDKLALAVAEQYNVDTILGPDTYDTFLAELDFSSSESPTKQSPMEMNGDRMPSTAPPPAQNPQHIAQLQQQQNKMRLMQQQQQEMQRIEQQRRQQIMQQQQQQQQQEHQRQQMLLQQQQQQQQMQQHHQMNGGGQFATQAHQQAAYMQQMQRMEQIRHQQQQAQQHQQAQQQHQQQAQHHQMGYGIPNGYPQQMHMHPPAYGAHHMPQPTAFANIN | not soluble
20 | MRIVTAAVMASTLAVSSLSHAAEVGSGDNWHPGEELTQRSTQSHMFDGISLTEHQRQQMRDLMQQARHEQPPVNVSELETMHRLVTAENFDENAVRAQAEKMANEQIARQVEMAKVRNQMYRLLTPEQQAVLNEKHQQRMEQLRDVTQWQKSSSLKLLSSSNSRSQMAGDPLEHHHHHH | not soluble
21 | MAKNKWQPTKHLGIYEYMTKKGKRYGIRVRYKQGNDYPEINKSGFETIAAAKVYKNNIENLKANKKEYVFTNEKLTLNTWFASYMEMFKKKNKSKDTIANKYSIYNNHLEIPFGNYYLTDISLDIYEDFLREKIKNGYANNSVKAMHKLMKSILNAAVRYEKLEKNRLQFAEIEQLEENEVIELKVLETDEFNVFISACRAFFTKYDFTMIYLAVWGMRRGEVMGVKLKNLTFDDAKQQVRITLDSTRTLRTPEGKGTKTPAGRRILLIDGEGYRLLKYSVEKAVSIAKDHGSVLHQDDFIFRNPTSNRPWAVTRMNDLLRKLEKEYDIKVYPHLLRHNFNTQALLAGANSNDLRKFIGHKNSSMTDHYSHATDEGREKLMNTMKDRLSGI | not soluble
